Laboratory results published in the supplement of paper PMC12636428.

tested on: Saccharomyces cerevisiae; test: transcriptional activation domain activity (GFP:mCherry ratio, weighted mean of sorted bins, harmonized to initial dataset scale) (arbitrary fluorescence ratio units); higher = stronger transcriptional activation; conditions: beta-estradiol 1 µM; induction time 4 h
Summary of the method: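 Sorting into 8 bins by GFP:mCherry ratio followed a 4-hour hold at 30 °C after cultures were diluted 1:5 into SC with 1 uM beta-estradiol. The yeast diploids carried a GFP reporter and had barcoded protein tiles, fused to an estradiol-inducible synthetic transcription factor, integrated at URA3. Barcodes were then sequenced, and tiles with under 50 reads were removed. Activation activity is the read-weighted mean of bin median fluorescence, averaged across barcodes and linearly mapped onto the initial dataset scale.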

| Sequence | transcriptional activation domain activity |
| --- | --- |
| HEQKICAKYGSDVIFADNIDGGDSDEDERSTSCTCGKLRAIVARVMVAIGGDL | 48400 |
| MWSFFFFLFFFGFCFLVFWPNLFFLFFFHDSCPFVLLLFLFHLFHLPVFPRSG | 40300 |
| MPPKRGRPKKASTPPPAPVEDEAPAPVAAPRGRGRPRKVQPSGDPEQTTAPTP | 28500 |
| SRLDAIEEEEEDLAAKNEGSTSNIEVDEIDIKSRDLKVGDIVKLGKNQRVPAD | 39600 |
| GAGPVGYGPQGAGEGDGESKSDSETMRTATTQPPPKPKQLYFIYVLASHYGLG | 61700 |
| KRPRKKKQQKAAAEEAAEPAGSGDEAAAPPEPKKRRKGKLRKEGDKNGNAAPA | 28500 |
| KHPQNTTTDIENEVENPVTDDNGNLKLELPDNLDNADFSKLLEFDAKNDEALF | 33600 |
| EAPREIKAKPEKKKAKPAEAAAPKKESKGKKVKADKKAGADKKADPAAAPAAG | 15300 |
| RRTRYLVLCVALELISSILYLYLISIFGSLHLATFPLRLGFFFLLLSRLLCTM | 35100 |
| MRWNRIIIGSHVSVLWMIGYVFTLLLTLVPSPLLEFRYFILPFIFFCIHLPPP | 48100 |
| NLMLQVVSPRIWFPSMQLIWGVLTFWWVAMPCRRIFITHILDHGIQIYAIRFF | 61400 |
| KTIFFCGGRFLTSRALWAFCLSMFLFVMPSVLFLIFTCPWLWHHISPAVPIIF | 41300 |
| LHPAPSSPSSTPRRRAAASTTATRTPAPAPTRTRRCSSSTKPPTASSSTPPRR | 57400 |
| VSDYSMAQFRFLLKFLLVHGRWNYVRICKYTVGTFWKELLFYLTQALFQRSNG | 46600 |
| PIPLGYGSLWMYEFLYFCLLHVVFTICDGIYLLRAELTLIILLHFLLSWDEGN | 47600 |
| FYTLIVEEDQSLWLCLKWCFFDMLFMFGIPLLEIPWLEWSNGAAFLLFVLHAG | 63300 |
| MYFASYIFISFFSLFISIIHPFKIYYILLYTHHIIISIQLLLPFHFLTSIILS | 80300 |
| GRGKESLLVLSGCSLIQIPVPVWGYHIAFVVCQKYYGSHLGIVHLILPFAFTI | 47800 |
| KQYCVRPNSGRIEPGREVEVSVLLQAMKQEPAPDARCRDKFLVQSVTITSDQE | 20500 |
| EKGEEGGSGGEGGEGRRGGQARGTGRRAGQEGKGPGKGEGGAARRRKEGEARK | 54500 |
| WLIKPEQNNGTWVADVLWPKLNLDLQWIASHWNQSSWDLWWPPVWGVLTGLPL | 67700 |

| Sequence | transcriptional activation domain activity |
| --- | --- |
| RGSYRLFLIHARLICTIHPLHLPLLYFPAYSMCILYPTPTYITSCSLLAVSFV | 55700 |
| EPKKAKIGAPKRKKKEVIEDAEAGAGAETEEGEAPPKKKRGGRKAKPAKEEPV | 15600 |
| MKGIRLYFKYVLLHVLLLPPSLLPFFFPLSPLFYMSILMGFSSPFFFFFSFIH | 53000 |
| DSLFFDHDLLSSSITNTNNGQGSNNGRQASKDDTLNLLDTTVNSNNNHNANNE | 32900 |
| YDIVCQWWRNLVDRLKELPPLVRISLILELCQFVIPKMHIHSHTLLCQLLFSL | 59100 |
| SGRTATSAKSHNIISGYREEVEQANLNLSLIDSQVVLLRAWKLLAMELCPFAF | 55900 |
| ILLRRAWTVNAEMLLHKFDPRLFPLYFRILYPTWDTCSIPAPSRLVGAAKQWL | 46700 |
| VHANQYYQLDVEIFKSSLDMELLGLLWNKYWINTLSQSPLISVSLFCYGHIFI | 57800 |
| PFPLSFPLPFLLSFPLPFLLSFPLISSQPFPLSLLSFPPFPPLSPLPPPSPFF | 44600 |
| SNKRNKDENRGRSRTRSASRGRSRSASVFSDARSRSRARSRSRAATMAKAGAA | 36300 |
| RDWRYVPEYVMRICRAHHADKPSVQMLVRKCFLEHIVNLTFTSFKALMSSKMS | 42700 |
| DAPEKEPEAEAAKPKGRGGRPKKVVPPAAAAPAPKEKEEPKPKAAAGRKRKAP | 32100 |
| YYVPLLASPTFWAVTLPLYCVFVGIQVFFVFLEAAGLSLHLVVIFWWLGWWAG | 53000 |
| MLYLCFLISFYSLCFLFSYFFNFVLDILFFYYFIIFLFSYFSIFLFSYFLICL | 54300 |
| MIHLLQYAYLFLFLLMLYDTLCHAILFFLTLNLTNWWYPIPFNMILHFIVPLF | 45300 |
| LRLVIENIQKYGNLVCLTCHDFRRKDLLLGVGLYFLIPCFLWVALSIELVAAR | 63600 |
| AADQVQDTAGQAVNQVGDTAGKALGGLTGGGKKEQGGEEEGGGEQLRLRLELN | 35700 |
| RKAKATAKEGDKEKSDGGEKLKKASKRSDGEDDKAGQRSSGNKKSRAKKRAED | 16400 |
| TELYRFTLAQSEQPGMYPLDLAWLDWDLVSSLWSYSLWSIQLSIYFFCPFAYF | 61400 |
| EKTRRNREKREKKKNKGKGGKGGGGGGNGGGGGGSGNAATVTAAAENGAGKKE | 30900 |
| KEKAKAKAKERKREERRKEKEKRAKEKEREKKRLREKEKRRKEKEKEKRRKEK | 14900 |

| Sequence | transcriptional activation domain activity |
| --- | --- |
| MCAASSEGASLSPASSLQRGKACLACRRRKMRCDGARPTCGQCVRGNRVDDCE | 21200 |
| QAHPPVQVRKTSHKAAEQKRRDSLKTTFDDLRGTASAAAPPVGRHGRACAPGA | 35300 |
| MLLLRVAGGRVMGCDVVGGFFFIFLFYLFIILGFVCCLVGWHVCWVFWFLVGF | 54300 |
| LKIYLLNPLHMTRFADLLYQGAIMNRVIQPYESHLQYLLQWMCDYNLYGCGYI | 75800 |
| SEVKYFWSYYNHVCFLVIPIDDNGLSIFFSCFTGESVEIILSIICVAMTQVLT | 35200 |
| LWYIGSFVTNGLVNVVGVWKICKLWSIWVRVAFTYMFMCFILFRALALHRIFI | 59200 |
| LNGRRMMHEPLVYDMYEPQTPLIIIARVGVRLVFIVAKIGELPHCFIDEPPQQ | 23200 |
| TFSNGEGERVSAWDARETEDGGREIFIEGEEVRVVVVQIRDGRVADWKGAVRD | 30200 |
| SLLQHLAEYFICFDSVVSFLLTLVVNVFRLTSFGIIRLVGWRPVVFFFFPSIY | 50900 |
| TIHHLKDSRSSSWTVAIDNNSNNNKVSDNQPDFVDFQELLDNDTLGNDLLETT | 61400 |
| GGALSHHEIRVHWAPSWVSSRAPCSTRGLGCKPGVSLIETVVRAVVLMSCARK | 46200 |
| APIDCPHRRLEVIMGLRPTRHIVLSILGLVITGFVSMDRADCIEFLLDLEPGD | 39800 |
| SAGTAQAGKKPRILLKVNGRSYQRVDCVGRGGSGKVYKVTAENGKMFAMKRVS | 45100 |
| WSVLLCFAVSFFSFSFLSFWAVTALCYGFVFVFFILLCVLCCFSFAFSHVYLF | 49600 |
| KGKGKGKEGKGKGRREGEGGRGTEGREMGEKEREEEREEEREGKEGRREGGKE | 24100 |
| GPSSSSSLSSSAGMPGTFVLNLGRYGGYYVIHMPVGAQRVLGLVLRRWKTLLF | 60500 |
| QEQEQEGMELGIKEGPADPRCKTCGRTEGTRKCTGCGRVRYCGRECQKKDWKV | 29700 |
| EIFSSYNASMVQESAGIDFLDFAMPDLIAEANDWAFQGVDSAFFDSVMAGYTL | 147000 |
| EAEDDEEDADAAGGKKPKAKKRKRESTVKESAEEKKGKRKRASEQLAKQRRGK | 22600 |
| MTWFGILPPFSWPWIYPRSFGMCGNLSTTLFLHVLIALFFFFCLFFHLCLLWL | 50200 |
| VKPIPPRPSTGLRYRVETLIGITGYRMAKFRPSWSEVVLACLNVLWRPQFFFV | 55000 |

| Sequence | transcriptional activation domain activity |
| --- | --- |
| YLFYRLGLNIREIQLRSRGLILLQSLSVLGWSLLASSFSGLYFIGYPCFIHWW | 42700 |
| MHEYARVALFGTVGVPLRVFISPAFLRALRSFAPHVIHLVDPILLRMQAHIAL | 48700 |
| NNCVGYFNYCHFIRLIVYANITTIYIFVLLCCRAHQIIFIQSASLEVGFLCVN | 66500 |
| TKGEFHKIAVIFTSTVVAGMVIMYFWILKQIPFMVGLVVWGWVGISQGFFAVN | 55800 |
| SWLRGYEVFKLQVSSTMIKCLRGMLCFIPVVCLGPNIVLLLGLPIQTQVKWFL | 61100 |
| WGLIIGLVGLNAALIYIGWRYYEVYYFLLVLLSSNTILQTFMCFCIMLHWFCT | 40400 |
| TAATVPSATRAVVSATCRATALRVRSATTAAVTTTSPATARLPARPAPATTAS | 34000 |
| IGVRFDTSIKFINGHLERFLAYLGDPLLKQLCSGEILRRLLLLIIDPPILWND | 79200 |
| MGLWARFFCFVIVCFQITFLYCLFSFSPSFLDLQKTQPLFFTFFFFCSFPSFP | 44200 |
| ASQFPWAQIEITWRCLTYLCFDSFLELPQYWMLRQKFLVEHALLAYAARYCLV | 54100 |
| PDIKKRPRKKSRRASAEGSEIGTESGGSDDGRQESAQRRKVERKERAGSSKEV | 47100 |
| DLLLEGYDTNRLLVVIPFTCKVLEQAAKSMVFKPPNPWLMAIVKLLAELYLYA | 73900 |
| KQYCVRPNSGRIEPGKDVEVQILLQAMKEDPPMDAKCRDKFLVQSVAVTADKE | 59200 |
| MPPFFFGLWRIFFFFFFFFCKQLWWTVEFVTYVSCFFFLLNKLVFWLFFFSVC | 58500 |
| IGSYYGKHELYEEVRAQDKILYCTLVLPFVYFLMFLWIWYYLYCFRFFGFFYA | 22000 |
| EEGEGPREEGGEEAHEQRDEGRHEEREERKEERREEPVRAAVPVRAAEPAPVV | 23000 |
| TRGAPPAPPPPPPPPARPSESGAPPPPPPPPARGAPPPPPPPPPPAGGAPPPP | 36500 |
| RTKASGSSGEAAAASGGASSSKAEDARAEGGEEAAKPRRSSRLSAKSAGESAG | 15000 |
| RPEEAPSTDEEESRGECWSEGKLCLENYMRLNDLEPENSDPEQLAHVKELLEK | 47500 |
| MVWIRSKSPIKWLYIWLYYVRRPRINVASYTTKWVTIESELVFLAENFLDDKC | 33300 |
